# Data published in US8530213B2, “Compositions and methods for using NADH oxidases” (Georgia Tech Research Corporation, priority 2009, dated 2013).
# Changes are numbered by the printed parent chain. Names and notes keep the numbering of the source.
# B1: L179R: NADH oxidase derived from Lactobacillus plantarum, L179R mutant (protein, listed as Lactobacillus plantarum)
# chain: MKVIVIGCTHAGTAAVNQILASNPDTEVTIYERNDNVSFLSCGIALYLGGQVADPQGLFYSSPEQLAKLGATVHMQHDVTDVNTDKHEITVTDLKTGESKTDHYDKLVVTTGSWPVIPPIDGIDSPNVYLCKNWTHAQNLWEAAKPAKRVIVIGGGYIGTELVEAYQKQGKEVTLIDGRPRILNKYLDKEFTDRVEQDFVDHGIKMALNQMVQGFSDDGKEVTVKTDKGSYTADMAILCVGFRPNTGLLKGKVDMNANGSIKTNDYMQTSDPDIYGAGDSVAVHYNPTKKDAYIPLATNAVRQGTLVGLNIFKPTRKYMGTQSTSGLMLFGQTIVSSGMTLEHAQAENVPAAAVTFEDNYRPEFMPTTKPVLMQLVYNPETREILGAQFMSEHDVSQSANVISVMIQNHNTIDDLGFVDMFFQPIYDRPFNYLNLLGQAAIAHAAEAVTE
# B2: G178R/L179R: NADH oxidase derived from Lactobacillus plantarum, G178R/L179R mutant (protein, listed as Lactobacillus plantarum)
# chain: B1 chain with G178R
# B3: L179H: NADH oxidase derived from Lactobacillus plantarum, L179H mutant (protein, listed as Lactobacillus plantarum)
# chain: B1 chain with R179H
# B4: G178K/L179K: NADH oxidase derived from Lactobacillus plantarum, G178K/L179K mutant (protein, listed as Lactobacillus plantarum)
# chain: B1 chain with G178K, R179K
# B5: G178K/L179R: NADH oxidase derived from Lactobacillus plantarum, G178K/L179R mutant (protein, listed as Lactobacillus plantarum)
# chain: B1 chain with G178K
# B6: G178K/L179H: NADH oxidase derived from Lactobacillus plantarum, G178K/L179H mutant (protein, listed as Lactobacillus plantarum)
# chain: B1 chain with G178K, R179H
# B7: G178R/L179K: NADH oxidase derived from Lactobacillus plantarum, G178R/L179K mutant (protein, listed as Lactobacillus plantarum)
# chain: B1 chain with G178R, R179K
# B8: G178R/L179H: NADH oxidase derived from Lactobacillus plantarum, G178R/L179H mutant (protein, listed as Lactobacillus plantarum)
# chain: B1 chain with G178R, R179H
# B9: G178K: NADH oxidase derived from Lactobacillus plantarum, G178K mutant (protein, listed as Lactobacillus plantarum)
# chain: B1 chain with G178K, R179L
# B10: G178R: NADH oxidase derived from Lactobacillus plantarum, G178R mutant (protein, listed as Lactobacillus plantarum)
# chain: B1 chain with G178K, R179L
# B11: L179K: NADH oxidase derived from Lactobacillus plantarum, L179K mutant (protein, listed as Lactobacillus plantarum)
# chain: B1 chain with R179K
# B12: L. lactis NOX2: NADH oxidase from Lactococcus lactis, comparison enzyme (protein, UniProt A2RIB7 1-446, looked up)
# NADH oxidase: MKIVVIGTNHAGIATANTLLEQYPGHEIVMIDRNSNMSYLGCGTAIWVGRQIEKPDELFYAKAEDFEAKGVKILTETEVSEIDFANKKVYAKTKSDDEIIEAYDKLVLATGSRPIIPNLPGKDLKGIHFLKLFQEGQAIDAEFAKEKVKRIAVIGAGYIGTEIAEAAKRRGKEVLLFDAENTSLASYYDEEFAKGMDENLAQHGIELHFGELAKEFKANEEGYVSQIVTNKATYDVDLVINCIGFTANSALASDKLATFKNGAIKVDKHQQSSDPDVYAVGDVATIYSNALQDFTYIALASNAVRSGIVAGHNIGGKELESVGVQGSNGISIFGYNMTSTGLSVKAAKKLGLEVSFSDFEDKQKAWFLHENNDSVKIRIVYETKSRRIIGAQLASKSEIIAGNINMFSLAIQEKKTIDELALLDLFFLPHFNSPYNYMTVAALNAK
# Key:
# NOX5 [1] = target: T1, NOX5 (Lactiplantibacillus plantarum, UniProt F9UUC2); assay: NAD+ product inhibition of NOX5; type: biochemical, Lactobacillus plantarum
# Experimental: (§1) Inhibition effects of NAD^+ and H2O2 were measured by incubating the enzyme with possible inhibitors for 30 minutes before the assay. For NAD^+, 0.2, 0.3, 0.4 and 0.6 mM were chosen and for H2O2, 25, 50, 100 and 200 μM were investigated.
# Possible product inhibitory effects were investigated by incubating the enzyme with different concentrations of NAD^+. […] (FIG. 6).
# NOX5 [2] = target: T1, NOX5; conditions: H2O2 up to 200 μM, 30 minutes incubation
# Experimental: as §1
# The effect of H2O2 was studied with a concentration range up to 200 μM, which would be the total amount produced from a standard assay if the enzyme was a hydrogen peroxide producing NADPH oxidase.
# [3] = NOX5 mutants assayed at the cell lysate level, NADH activity; type: biochemical
# Experimental: (§2) Standard assays were performed at 25° C. in 100 mM TEA buffer (pH 7.5) with 5 mM DTT in cuvettes with either a 1 cm or 1 mm path length, depending on the concentration of substrate. Initial activity was measured by following the absorbance change using a Beckman Coulter DU 800 UV/Vis spectrophotometer at 340 nm. Activity of the enzyme was calculated using an extinction coefficient of NAD(P)H, ε, as 6.22 mM^−1 cm^−1. Unless otherwise noted, a substrate concentration of 0.2 mM NADPH was used for assays. 1 unit (U) of activity is defined as […].
# (§3) Single mutations were done on residues G178 and L179 into K, R and K, R, H respectively, and double mutations were also investigated with different combinations of the single mutations. The mutation of G178H was excluded due to the fact that the enzyme would then have two histidines next to each other, creating steric hindrance in the binding pocket. The resulting mutants were expressed on small scale and assayed at the cell lysate level.
# [4] = Kinetic parameters of purified NADH oxidases, substrate NADH; type: biochemical
# Experimental: as §2
# […] This was conducted with an excess of oxygen present in the system. The reaction was initiated by mixing two separate 2× solutions of each the substrate and enzyme. The specific activity was measured, and the kinetic parameters were calculated from that data.
# The data was fitted with four different models: non-linear Michaelis-Menten, Lineweaver-Burk, Eadie-Hofstee and Hanes. Through non-linear fitting, kcat and KM of the wild type were measured to be 211.6 s^−1 and 50.2 μM, respectively with an R^2 of 0.998. (FIG. 5).
# [5] = Kinetic parameters of purified NADH oxidases, substrate NADPH; type: biochemical; conditions: purified enzyme, excess of oxygen
# Experimental: as §2
# Depending on the enzyme, a substrate concentration range from 1.5 μM up to 984 μM was investigated to determine the kcat and KM of NADPH. This was conducted with an excess of oxygen present in the system. The reaction was initiated by mixing two separate 2× solutions of each the substrate and enzyme. The specific activity was measured, and the kinetic parameters were calculated from that data.
# [6] = Total turnover number (TTN), NADH; type: biochemical; parameters: key: TTN = change in NAD(P)H concentration / amount of enzyme; conditions: for TTN with DTT, NADH: 5 mM DTT, 25° C.; for TTN, NADH: no reducing agents
# Experimental: (§4) Standard kinetic assays were performed with small amounts of enzyme. Assays were carried out for two to three hours until there was no more enzymatic conversion of the substrate.
# Total turnover number (TTN) is a measurement of catalyst productivity. For biocatalysts, TTN is defined as the total amount of product produced over the lifetime of an enzyme. […] […] (data not shown).
# (§5) This experiment was repeated to see if the presence of reducing agents had any effect on the total turnover number. The stock solution of enzyme was dialyzed against 250 mL of 10 mM Tris-HCl (pH 7.5) for two hours. The solution was then exchanged and dialyzed for an additional 2 hours. The TTN was then measured with the dialyzed enzyme with and without reducing agents. DTT and β-mercaptoethanol (β-ME) were used at a concentration of 5 mM. The TTN for the sample with no reducing agents, DTT and β-ME were 128,000, 168,000 and 107,000, respectively.
# [7] = NOX5 mutants assayed at the cell lysate level, NADPH activity; type: biochemical
# Experimental: as §2, §3
# [8] = Total turnover number (TTN), NADPH; type: biochemical
# Experimental: as §4
# Total turnover number (TTN) is a measurement of catalyst productivity. For biocatalysts, TTN is defined as the total amount of product produced over the lifetime of an enzyme. Calculations of TTN were performed by dividing the change of NADPH concentration by the amount of enzyme that was used for each assay. […] (data not shown).
# as §5
# [9] = purified enzyme, excess of oxygen
# T1 sequence (F9UUC2 entry or part of it): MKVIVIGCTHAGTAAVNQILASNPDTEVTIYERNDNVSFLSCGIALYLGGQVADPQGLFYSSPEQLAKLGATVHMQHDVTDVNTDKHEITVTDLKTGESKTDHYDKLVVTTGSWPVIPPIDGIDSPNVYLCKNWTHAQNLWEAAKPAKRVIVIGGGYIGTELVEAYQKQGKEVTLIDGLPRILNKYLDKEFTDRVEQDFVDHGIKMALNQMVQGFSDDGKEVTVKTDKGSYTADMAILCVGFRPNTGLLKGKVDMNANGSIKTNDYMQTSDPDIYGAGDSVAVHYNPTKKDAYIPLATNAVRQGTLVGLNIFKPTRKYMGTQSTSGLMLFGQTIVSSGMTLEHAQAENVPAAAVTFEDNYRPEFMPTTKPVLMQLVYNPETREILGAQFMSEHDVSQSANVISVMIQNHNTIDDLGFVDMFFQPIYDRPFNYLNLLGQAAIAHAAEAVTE
Molecule,NADH activity [3],NADPH activity [7],also measured
NC(=O)c1ccc[n+]([C@@H]2O[C@H](COP(=O)([O-])OP(=O)(O)OC[C@H]3O[C@@H](n4cnc5c(N)ncnc54)[C@H](O)[C@@H]3O)[C@@H](O)[C@H]2O)c1 [NAD^+],,,"Ki (NOX5 [1]; 0.2, 0.3, 0.4 and 0.6 mM NAD^+, 30 minutes incubation): 289 µM; inhibition pattern (NOX5 [1]; Hanes-Woolf plot): non-competitive"
"OO [H2O2, hydrogen peroxide]",,,change in the initial specific activity of the enzyme (NOX5 [2]): no change
B1,7.32 U/mg,1.76 U/mg,"improvement of kcat/KM (NADH) over the wild-type [4]: more than 4 fold; Km [4, 9]: 6.56 µM; kcat, NADH [4, 9]: 122.0 s⁻¹; Km [5]: 490 µM; kcat, NADPH [5]: 146.4 s⁻¹; TTN with DTT, NADH [6]: 149,000; TTN, NADH [6]: 181,000"
B2,2.64 U/mg,6.00 U/mg,"TTN, NADPH ([8]; no reducing agents): 105,000; TTN with DTT, NADPH ([8]; with DTT): 118,000; kcat, NADH [4, 9]: 34.0 s⁻¹; Km [5]: 9.76 µM; kcat, NADPH [5]: 114.1 s⁻¹; TTN with DTT, NADH [6]: 128,000; TTN, NADH [6]: 108,000"
B3,1.37 U/mg,0.64 U/mg,
B4,0.84 U/mg,3.11 U/mg,
B5,2.00 U/mg,5.68 U/mg,
B6,1.24 U/mg,3.85 U/mg,
B7,0.94 U/mg,3.56 U/mg,
B8,0.64 U/mg,0.52 U/mg,
B9,3.92 U/mg,0.46 U/mg,
B10,1.51 U/mg,0.23 U/mg,
B11,5.14 U/mg,1.03 U/mg,
B12,,,"TTN with DTT, NADH [6]: 78,480; TTN, NADH [6]: 38,740"
